In PMC7736860:

Experiments:
Assay in all cases: EMSA
Conditions in all cases: Chemiluminescent EMSA kit (Beyotime); buffer, salt, pH and temperature not stated
[1] = target: T1, BTF3 (Arabidopsis thaliana) (UniProt Q9SMW7)
T1 sequence: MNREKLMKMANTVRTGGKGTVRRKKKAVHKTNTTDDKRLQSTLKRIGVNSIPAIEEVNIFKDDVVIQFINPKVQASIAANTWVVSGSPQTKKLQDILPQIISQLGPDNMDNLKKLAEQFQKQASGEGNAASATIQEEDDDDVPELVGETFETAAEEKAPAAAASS

[2] = target: T2, bHLH106 (Arabidopsis thaliana) (UniProt O80674)
T2 sequence: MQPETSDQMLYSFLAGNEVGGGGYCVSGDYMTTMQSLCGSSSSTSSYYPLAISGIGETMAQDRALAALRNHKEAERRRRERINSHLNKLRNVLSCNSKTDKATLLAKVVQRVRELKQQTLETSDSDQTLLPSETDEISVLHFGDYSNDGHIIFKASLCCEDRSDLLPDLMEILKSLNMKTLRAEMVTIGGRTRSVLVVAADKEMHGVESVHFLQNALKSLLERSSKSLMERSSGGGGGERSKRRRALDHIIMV

[3] = target: T3, HAT1 (Arabidopsis thaliana) (UniProt P46600)
T3 sequence: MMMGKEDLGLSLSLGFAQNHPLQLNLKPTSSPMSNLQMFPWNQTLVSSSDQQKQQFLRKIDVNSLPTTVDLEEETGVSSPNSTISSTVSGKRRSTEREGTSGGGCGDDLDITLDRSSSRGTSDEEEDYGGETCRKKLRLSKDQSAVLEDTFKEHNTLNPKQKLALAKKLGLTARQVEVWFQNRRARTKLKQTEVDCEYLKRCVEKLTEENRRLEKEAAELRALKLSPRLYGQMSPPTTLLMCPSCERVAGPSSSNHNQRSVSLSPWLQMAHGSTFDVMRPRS

[4] = target: T4, TEM1 (TEMPRANILLO1) (Arabidopsis thaliana) (UniProt Q9C6M5)
T4 sequence: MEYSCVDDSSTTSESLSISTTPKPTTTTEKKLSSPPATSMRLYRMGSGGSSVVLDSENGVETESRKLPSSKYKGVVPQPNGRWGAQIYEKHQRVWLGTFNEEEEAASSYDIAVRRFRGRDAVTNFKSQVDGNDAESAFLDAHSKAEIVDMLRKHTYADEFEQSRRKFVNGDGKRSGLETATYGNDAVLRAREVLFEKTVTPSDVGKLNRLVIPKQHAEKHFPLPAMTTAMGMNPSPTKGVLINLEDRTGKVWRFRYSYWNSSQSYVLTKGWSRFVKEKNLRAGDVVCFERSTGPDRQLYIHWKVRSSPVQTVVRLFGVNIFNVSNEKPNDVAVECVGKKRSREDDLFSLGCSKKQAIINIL

[5] = target: T5, bZIP1664 (Arabidopsis thaliana) (UniProt F4I978)
T5 sequence: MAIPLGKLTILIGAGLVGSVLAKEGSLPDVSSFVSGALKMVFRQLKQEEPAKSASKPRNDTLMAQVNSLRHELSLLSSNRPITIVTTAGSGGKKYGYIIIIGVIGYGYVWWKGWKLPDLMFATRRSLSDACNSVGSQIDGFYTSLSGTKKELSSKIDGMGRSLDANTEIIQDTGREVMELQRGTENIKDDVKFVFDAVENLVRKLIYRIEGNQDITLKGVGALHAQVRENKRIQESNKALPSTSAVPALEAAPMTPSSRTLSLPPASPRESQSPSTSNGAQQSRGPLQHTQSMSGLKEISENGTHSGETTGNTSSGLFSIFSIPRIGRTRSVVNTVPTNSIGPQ

Measured: binding

GTGAAACAGCGTGTGTTATGCACAATAATGGATTCCCGAAGTGGAAGGGTACATTTGTCCTTTCGAGATCAATTTCTCGATACAGTAAAAATGGGCCATTGTTGTTTACTTTTCCTTGGTGTTAAAACAATAATGTAGTGCCCCCACTTAGATATTTTTTTGCTAGGTTTTGGCTCCAACCCAAGAAAAATTCGTTCGGTGACTAATAATAATCGCTGACCCCGA (double strand)
binds: all assays above
